# Test results: paper PMC3733929, “Analysis of Mutations in Neurospora crassa ERMES Components Reveals Specific Functions Related to β-Barrel Protein Assembly and Maintenance of Mitochondrial Morphology” (PLoS ONE, 2013)
# B1: Mmm1-HA (N. crassa Mmm1 with a C-terminal triple hemaglutinin epitope tag) (natural protein, Neurospora crassa, UniProt Q9P353 1-415, looked up)
# chain: MADICPSRSEPTLSFTQGLILGQLSVVLLLAAFIKFFIFGDPPSPEVVASIRATDRRSRTLAHKKSILSLRETNALQLVQNPALNKKHVLRPGPPILTIGSILSKTYYKVDSHQPESLDWFNVLIAQTIAQFRSDAQHDDAILSSLSKALNGTARPDFLDEIKVTELSLGEDFPIFSNCRIIPVDEDGLSFGTGKAFDANMATREGARLQARMDVDLSDMITLAVETKLLLNYPKRLSAVLPVALAVSVVRFSGTLSISFIPSNPSNNEPAKMIFTFLDDYRLDFSIRSLLGSRSRLQDVPKIAQLVESRLHRWFDERCVEPRFQEIALPNMWPRKKNTRGGDETISDVERSMSKAKGVDIAKDVREEARKEIEAEAHGGADRVPDSLRYRHRPRADEEFPGAGSMPGSMPGSMP
# notes: Mmm1, Neurospora crassa; also called HA-tagged Mmm1; Mmm1-HA3; source: N. crassa Δmmm1 transformed with pMmm1-HA (endogenous mmm1 promoter; strains Mmm1-HA3, Mmm1-HA5, Mmm1-HA8), in isolated mitochondria or post mitochondrial pellet; not shown: 3xHA, C-terminal, kept
# Target: the molecule itself
# Assay: non-reducing SDS-PAGE and Western blot; isolated mitochondria dissolved in cracking buffer (0.06 M Tris-HCl pH 6.8, 2.5% SDS, 5% sucrose) without β-mercaptoethanol; anti-HA blot; disulphide-bonded form at about 100 kDa
protein,measurement,value
B1,stoichiometry N,2
